Measured values reported in article PMC7682986, “Talin-activated vinculin interacts with branched actin networks to initiate bundles” (eLife, 2020).

Target: T1, full-length human vinculin (human, UniProt P18206-2 1-1066, Alexa Fluor 488 maleimide on cysteines (30% Alexa488-labeled monomers in the TIRFM assay on patterns))
T1 construct: human vinculin, cDNA isolated from the human A431 cell line, PCR product of 1066 amino acids; FX cloning and 3C cleavage may leave a few extra residues at the ends; also called VCL; source: Sf9 insect cells (baculovirus), purified (Ni IMAC, 3C protease cleavage on the resin, Superdex 200); not shown: GFP, C-terminal, cleaved; 10xHis, C-terminal, cleaved
T1 sequence (looked up): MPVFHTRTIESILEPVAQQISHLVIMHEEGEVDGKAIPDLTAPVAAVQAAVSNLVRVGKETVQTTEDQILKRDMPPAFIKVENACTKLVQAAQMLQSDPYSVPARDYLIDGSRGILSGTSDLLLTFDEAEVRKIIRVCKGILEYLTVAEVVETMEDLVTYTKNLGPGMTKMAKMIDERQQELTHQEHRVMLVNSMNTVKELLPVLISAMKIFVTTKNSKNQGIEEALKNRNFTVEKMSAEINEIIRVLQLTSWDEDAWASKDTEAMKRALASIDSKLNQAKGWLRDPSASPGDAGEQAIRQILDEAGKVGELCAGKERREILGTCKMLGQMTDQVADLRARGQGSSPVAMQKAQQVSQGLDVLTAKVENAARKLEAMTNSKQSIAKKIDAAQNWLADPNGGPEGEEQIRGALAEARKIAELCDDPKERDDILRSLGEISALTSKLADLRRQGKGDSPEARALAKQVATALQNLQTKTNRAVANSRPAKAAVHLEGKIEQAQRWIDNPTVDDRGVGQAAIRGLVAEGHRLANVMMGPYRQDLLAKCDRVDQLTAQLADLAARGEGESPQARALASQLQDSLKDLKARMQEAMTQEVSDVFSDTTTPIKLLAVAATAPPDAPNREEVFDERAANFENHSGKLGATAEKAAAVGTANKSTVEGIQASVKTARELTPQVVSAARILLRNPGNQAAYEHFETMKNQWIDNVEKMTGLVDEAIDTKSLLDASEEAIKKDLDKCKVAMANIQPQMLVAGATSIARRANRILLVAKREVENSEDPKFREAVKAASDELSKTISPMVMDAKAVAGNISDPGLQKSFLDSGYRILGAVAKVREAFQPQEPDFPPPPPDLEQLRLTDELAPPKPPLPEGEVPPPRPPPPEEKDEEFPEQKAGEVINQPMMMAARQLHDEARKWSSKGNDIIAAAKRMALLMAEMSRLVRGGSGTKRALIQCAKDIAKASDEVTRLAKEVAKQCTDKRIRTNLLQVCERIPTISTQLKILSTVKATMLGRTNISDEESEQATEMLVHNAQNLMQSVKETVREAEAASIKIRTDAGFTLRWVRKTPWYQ
Assay: TIRF microscopy on protein-coated micropatterns; micropatterns coated with 0.4 µM GST-talin VBS1 (control patterns with BSA); flow of 300 nM inactive vinculin (Alexa488), 0.3 µM actin, Arp2/3 complex and 80 nM WAVE WA; 20 mM Hepes pH 7.0, 40 mM KCl, 0.4% methylcellulose, 0.2% BSA
Details: both partners purified

binding result: binds
B1: GST-talin VBS1 (human talin 1 vinculin-binding site 1, residues 482–636) (domain or fragment, UniProt Q9Y490 482-636, looked up)
chain: RGHMPPLTSAQQALTGTINSSMQAVQAAQATLDDFDTLPPLGQDAASKAWRKNKMDESKHEIHSQVDAITAGTASVVNLTAGDPAETDYTAVGCAVTTISSNLTEMSRGVKLLAALLEDEGGSGRPLLQAAKGLAGAVSELLRSAQPASAEPRQN
notes: construct from C; Le Clainche; Coated on micropatterns as GST-talin VBS1; also called GST-VBS1; VBS1-GST; source: E. coli BL21 (DE3)pLysS, purified (glutathione-Sepharose)
